Experiments:
Assay type in all cases: cell-based, Saccharomyces cerevisiae
Hua2 = assay: Deep mutational scanning of Abp1 SH3, Abp1-Hua2 DHFR-PCA (DMS score); details: for hua2sc (frequencies scaled to the synonymous mutation distribution, DMS score) / HUA2_MTX2 (frequencies normalized to the reference condition): Abp1-Hua2 DHFR-PCA; for HUA2_MTX2 (frequencies normalized to the reference condition): MTX2
Method in brief: (§1)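 Each SH3 position is mutated to all possible codons within endogenous ABP1; the pooled strains are crossed to DHFR F[3]-tagged partners, diploids are enriched in NAT/HPH media, and two 72 h complementation selections at 30 °C follow, with Illumina counts of the locus yielding the score.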

Lsb3 = assay: Deep mutational scanning of Abp1 SH3, Abp1-Lsb3 DHFR-PCA (DMS score); details: for lsb3sc (frequencies scaled to the synonymous mutation distribution, DMS score) / LSB3_MTX2 (frequencies normalized to the reference condition): Abp1-Lsb3 DHFR-PCA; for LSB3_MTX2 (frequencies normalized to the reference condition): MTX2
Method in brief: as §1

[1] = tested on: Hua2 and Lsb3 (Abp1-Hua2 and Abp1-Lsb3 PPIs); assay: Deep mutational scanning of Abp1 SH3, quadrant classification from Hua2 and Lsb3 DMS scores; details: class from DMS scores for Hua2 and Lsb3
Hua2 and Lsb3 = assay: Quadrant classification of Abp1 SH3 variants from DMS scores (Abp1-Hua2 and Abp1-Lsb3 DHFR-PCA); details: class by effect on Hua2 and Lsb3 PPIs (Dest. both / Dest. Hua2 / Dest. Lsb3 / Neutral)

B1: ABP1 V54V (protein, UniProt P15891 2-592, looked up)
Actin-binding protein: ALEPIDYTTHSREIDAEYLKIVRGSDPDTTWLIISPNAKKEYEPESTGSSFHDFLQLFDETKVQYGLARVSPPGSDVEKIIIIGWCPDSAPLKTRASFAANFAAVANNLFKGYHVQVTARDEDDLDENELLMKISNAAGARYSIQTSSKQQGKASTPPVKKSFTPSKSPAPVSKKEPVKTPSPAPAAKISSRVNDNNDDDDWNEPELKERDFDQAPLKPNQSSYKPIGKIDLQKVIAEEKAKEDPRLVQKPTAAGSKIDPSSDIANLKNESKLKRDSEFNSFLGTTKPPSMTESSLKNDDDKVIKGFRNEKSPAQLWAERKAKQNSGNAETKAEAPKPEVPEDEPEGEPDVKDLKSKFEGLAASEKEEEEMENKFAPPPKKSEPTIISPKPFSKPQEPVKAEEAEQPKTDYKKIGNPLPGMHIEADNEEEPEENDDDWDDDEDEAAQPPLPSRNVASGAPVQKEEPEQEEIAPSLPSRNSIPAPKQEEAPEQAPEEEIEEEAEEAAPQLPSRSSAAPPPPPRRATPEKKPKENPWATAEYDYDAAEDNELTFVENDKIINIEFVDDDWWLGELEKDGSKGLFPSNYVSLGN
modifications: synonymous V54V
Hua2
  hua2sc (frequencies scaled to the synonymous mutation distribution, DMS score): -0.1199
  HUA2_MTX2 (frequencies normalized to the reference condition): 1.4929
Lsb3
  lsb3sc (frequencies scaled to the synonymous mutation distribution, DMS score): -0.8004
  LSB3_MTX2 (frequencies normalized to the reference condition): 0.6999
[1]
  quadrant: Neutral

B2: ABP1 N58N (protein, UniProt P15891 2-592, looked up)
Actin-binding protein: ALEPIDYTTHSREIDAEYLKIVRGSDPDTTWLIISPNAKKEYEPESTGSSFHDFLQLFDETKVQYGLARVSPPGSDVEKIIIIGWCPDSAPLKTRASFAANFAAVANNLFKGYHVQVTARDEDDLDENELLMKISNAAGARYSIQTSSKQQGKASTPPVKKSFTPSKSPAPVSKKEPVKTPSPAPAAKISSRVNDNNDDDDWNEPELKERDFDQAPLKPNQSSYKPIGKIDLQKVIAEEKAKEDPRLVQKPTAAGSKIDPSSDIANLKNESKLKRDSEFNSFLGTTKPPSMTESSLKNDDDKVIKGFRNEKSPAQLWAERKAKQNSGNAETKAEAPKPEVPEDEPEGEPDVKDLKSKFEGLAASEKEEEEMENKFAPPPKKSEPTIISPKPFSKPQEPVKAEEAEQPKTDYKKIGNPLPGMHIEADNEEEPEENDDDWDDDEDEAAQPPLPSRNVASGAPVQKEEPEQEEIAPSLPSRNSIPAPKQEEAPEQAPEEEIEEEAEEAAPQLPSRSSAAPPPPPRRATPEKKPKENPWATAEYDYDAAEDNELTFVENDKIINIEFVDDDWWLGELEKDGSKGLFPSNYVSLGN
modifications: synonymous codon change N58N
Hua2
  hua2sc (frequencies scaled to the synonymous mutation distribution, DMS score): -0.8159
  HUA2_MTX2 (frequencies normalized to the reference condition): 0.7969
Lsb3
  lsb3sc (frequencies scaled to the synonymous mutation distribution, DMS score): -0.6649
  LSB3_MTX2 (frequencies normalized to the reference condition): 0.8354
[1]
  quadrant: Neutral

B3: ABP1 L17L (protein, UniProt P15891 2-592, looked up)
Actin-binding protein: ALEPIDYTTHSREIDAEYLKIVRGSDPDTTWLIISPNAKKEYEPESTGSSFHDFLQLFDETKVQYGLARVSPPGSDVEKIIIIGWCPDSAPLKTRASFAANFAAVANNLFKGYHVQVTARDEDDLDENELLMKISNAAGARYSIQTSSKQQGKASTPPVKKSFTPSKSPAPVSKKEPVKTPSPAPAAKISSRVNDNNDDDDWNEPELKERDFDQAPLKPNQSSYKPIGKIDLQKVIAEEKAKEDPRLVQKPTAAGSKIDPSSDIANLKNESKLKRDSEFNSFLGTTKPPSMTESSLKNDDDKVIKGFRNEKSPAQLWAERKAKQNSGNAETKAEAPKPEVPEDEPEGEPDVKDLKSKFEGLAASEKEEEEMENKFAPPPKKSEPTIISPKPFSKPQEPVKAEEAEQPKTDYKKIGNPLPGMHIEADNEEEPEENDDDWDDDEDEAAQPPLPSRNVASGAPVQKEEPEQEEIAPSLPSRNSIPAPKQEEAPEQAPEEEIEEEAEEAAPQLPSRSSAAPPPPPRRATPEKKPKENPWATAEYDYDAAEDNELTFVENDKIINIEFVDDDWWLGELEKDGSKGLFPSNYVSLGN
modifications: synonymous codon change L17L in SH3
Hua2; Frequencies scaled to the synonymous mutation distribution (DMS score), Hua2
  hua2sc (DMS score): -0.5458
Hua2; frequencies normalized to the reference condition, Abp1-Hua2, MTX2
  HUA2_MTX2: 1.067
Lsb3; Frequencies scaled to the synonymous mutation distribution (DMS score), Lsb3
  lsb3sc (DMS score): -0.4377
Lsb3; frequencies normalized to the reference condition, Abp1-Lsb3, MTX2
  LSB3_MTX2: 1.063
Hua2 and Lsb3
  quadrant: Neutral

B4: ABP1 G57G (protein, UniProt P15891 2-592, looked up)
Actin-binding protein: ALEPIDYTTHSREIDAEYLKIVRGSDPDTTWLIISPNAKKEYEPESTGSSFHDFLQLFDETKVQYGLARVSPPGSDVEKIIIIGWCPDSAPLKTRASFAANFAAVANNLFKGYHVQVTARDEDDLDENELLMKISNAAGARYSIQTSSKQQGKASTPPVKKSFTPSKSPAPVSKKEPVKTPSPAPAAKISSRVNDNNDDDDWNEPELKERDFDQAPLKPNQSSYKPIGKIDLQKVIAEEKAKEDPRLVQKPTAAGSKIDPSSDIANLKNESKLKRDSEFNSFLGTTKPPSMTESSLKNDDDKVIKGFRNEKSPAQLWAERKAKQNSGNAETKAEAPKPEVPEDEPEGEPDVKDLKSKFEGLAASEKEEEEMENKFAPPPKKSEPTIISPKPFSKPQEPVKAEEAEQPKTDYKKIGNPLPGMHIEADNEEEPEENDDDWDDDEDEAAQPPLPSRNVASGAPVQKEEPEQEEIAPSLPSRNSIPAPKQEEAPEQAPEEEIEEEAEEAAPQLPSRSSAAPPPPPRRATPEKKPKENPWATAEYDYDAAEDNELTFVENDKIINIEFVDDDWWLGELEKDGSKGLFPSNYVSLGN
modifications: synonymous G57G codon change in SH3 domain
Hua2
  hua2sc (frequencies scaled to the synonymous mutation distribution, DMS score): -0.4468
  HUA2_MTX2 (frequencies normalized to the reference condition): 1.166
Lsb3
  lsb3sc (frequencies scaled to the synonymous mutation distribution, DMS score): -0.3559
  LSB3_MTX2 (frequencies normalized to the reference condition): 1.1444
[1]
  quadrant: Neutral

B5: ABP1 S55S (protein, UniProt P15891 2-592, looked up)
Actin-binding protein: ALEPIDYTTHSREIDAEYLKIVRGSDPDTTWLIISPNAKKEYEPESTGSSFHDFLQLFDETKVQYGLARVSPPGSDVEKIIIIGWCPDSAPLKTRASFAANFAAVANNLFKGYHVQVTARDEDDLDENELLMKISNAAGARYSIQTSSKQQGKASTPPVKKSFTPSKSPAPVSKKEPVKTPSPAPAAKISSRVNDNNDDDDWNEPELKERDFDQAPLKPNQSSYKPIGKIDLQKVIAEEKAKEDPRLVQKPTAAGSKIDPSSDIANLKNESKLKRDSEFNSFLGTTKPPSMTESSLKNDDDKVIKGFRNEKSPAQLWAERKAKQNSGNAETKAEAPKPEVPEDEPEGEPDVKDLKSKFEGLAASEKEEEEMENKFAPPPKKSEPTIISPKPFSKPQEPVKAEEAEQPKTDYKKIGNPLPGMHIEADNEEEPEENDDDWDDDEDEAAQPPLPSRNVASGAPVQKEEPEQEEIAPSLPSRNSIPAPKQEEAPEQAPEEEIEEEAEEAAPQLPSRSSAAPPPPPRRATPEKKPKENPWATAEYDYDAAEDNELTFVENDKIINIEFVDDDWWLGELEKDGSKGLFPSNYVSLGN
modifications: synonymous codon change S55S
Hua2
  hua2sc (frequencies scaled to the synonymous mutation distribution, DMS score): -0.05585
  HUA2_MTX2 (frequencies normalized to the reference condition): 1.557
Lsb3
  lsb3sc (frequencies scaled to the synonymous mutation distribution, DMS score): 0.2461
  LSB3_MTX2 (frequencies normalized to the reference condition): 1.746
[1]
  quadrant: Neutral
